In patent USRE47150 (Bayer, dated 2018):
Changes are numbered by the printed parent chain. Numbers in names are those of the source.

T1: mouse tissue factor pathway inhibitor (TFPI) (mouse, UniProt O54819 29-289, limits assumed)
T1 construct: bought; also called mTFPI; murine TFPI
T1 sequence (looked up): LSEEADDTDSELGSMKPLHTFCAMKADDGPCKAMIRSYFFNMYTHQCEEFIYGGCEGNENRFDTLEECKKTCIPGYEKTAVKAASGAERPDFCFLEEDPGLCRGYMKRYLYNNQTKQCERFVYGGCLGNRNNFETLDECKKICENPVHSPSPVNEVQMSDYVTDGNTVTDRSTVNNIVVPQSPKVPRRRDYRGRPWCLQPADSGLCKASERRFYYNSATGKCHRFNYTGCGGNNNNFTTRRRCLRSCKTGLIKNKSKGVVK

T2: human tissue factor pathway inhibitor (TFPI) (human, UniProt P10646 29-304, limits assumed)
T2 construct: bought; also called hTFPI; human TFPI
T2 sequence (looked up): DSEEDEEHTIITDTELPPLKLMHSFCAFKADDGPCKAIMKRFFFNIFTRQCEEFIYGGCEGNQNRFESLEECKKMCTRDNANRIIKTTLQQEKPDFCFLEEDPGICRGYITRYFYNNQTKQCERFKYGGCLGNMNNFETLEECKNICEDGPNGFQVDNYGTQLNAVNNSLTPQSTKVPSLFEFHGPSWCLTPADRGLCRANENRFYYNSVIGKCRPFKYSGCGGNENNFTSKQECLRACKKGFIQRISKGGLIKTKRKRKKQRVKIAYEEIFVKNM

B1: 2A8-227 (HC S35D+K99L/LC Y48F+D91L+V96W) (Fab, V domains shown)
VH: QVQLVESGGGLVQPGGSLRLSCAASGFTFRSYGMDWVRQAPGKGLEWVSSIRGSSSSTYYADSVKGRFTISRDNSKNTLYLQMNSLRAEDTAVYYCARLYRYWFDYWGQGTLVTVSS
VL: DIELTQPPSVSVAPGQTARISCSGDNLRNYYAHWYQQKPGQAPVVVIFYDNNRPSGIPERFSGSNSGNTATLTISGTQAEDEADYYCQSWLDGVPWFGGGTKLTVLG
B2: 4B7 wild-type Fab (Fab, V domains shown)
VH: QVQLQQSGPGLVKPSQTLSLTCAISGDSVSSNSAAWSWIRQSPGRGLEWLGIIYKRSKWYNDYAVSVKSRITINPDTSKNQFSLQLNSVTPEDTAVYYCARWHSDKHWGFDYWGQGTLVTVSS
VL: DIVMTQSPLSLPVTPGEPASISCRSSQSLVFSDGNTYLNWYLQKPGQSPQLLIYKGSNRASGVPDRFSGSGSGTDFTLKISRVEAEDVGVYYCQQYDSYPLTFGQGTKVEIKR
notes: Fab with HA (or c-myc) and 6xHis tag at the C-terminus of the heavy chain; also called 4B7wt; parental 4B7
B3: 2A8 HC_G33P (Fab, V domains shown)
VH: B1 VH with G33P, D35S, L99K
VL: B1 VL with F48Y, L91D, W96V
notes: also called 2A8-1
B4: 2A8 HC_K99V (Fab, V domains shown)
VH: B1 VH with D35S, L99V
VL: B1 VL with F48Y, L91D, W96V
notes: also called 2A8-10
B5: 2A8 HC_S35D (Fab, V domains shown)
VH: B1 VH with L99K
VL: B1 VL with F48Y, L91D, W96V
notes: also called 2A8-4
B6: 2A8 HC_S31V (Fab, V domains shown)
VH: B1 VH with S31V, D35S, L99K
VL: B1 VL with F48Y, L91D, W96V
notes: also called 2A8-3
B7: 2A8 LC_D91W (Fab, V domains shown)
VH: B1 VH with D35S, L99K
VL: B1 VL with F48Y, L91W, W96V
notes: also called 2A8-17
B8: 2A8 HC_S54F (Fab, V domains shown)
VH: B1 VH with D35S, S54F, L99K
VL: B1 VL with F48Y, L91D, W96V
notes: also called 2A8-7
B9: 2A8 HC_I51E (Fab, V domains shown)
VH: B1 VH with D35S, I51E, L99K
VL: B1 VL with F48Y, L91D, W96V
notes: also called 2A8-6
B10: 2A8 LC_D91L (Fab, V domains shown)
VH: B1 VH with D35S, L99K
VL: B1 VL with F48Y, W96V
notes: also called 2A8-16
B11: 2A8 LC_D91K (Fab, V domains shown)
VH: B1 VH with D35S, L99K
VL: B1 VL with F48Y, L91K, W96V
notes: also called 2A8-15
B12: 2A8 LC_Y48F (Fab, V domains shown)
VH: B1 VH with D35S, L99K
VL: B1 VL with L91D, W96V
notes: also called 2A8-14
B13: 2A8 HC_S31P (Fab, V domains shown)
VH: B1 VH with S31P, D35S, L99K
VL: B1 VL with F48Y, L91D, W96V
notes: also called 2A8-2

Target: T1, mouse tissue factor pathway inhibitor …
Test: SPR, TFPI immobilized

| KD fold improvement | Kd | koff | kon | Binder |
| --- | --- | --- | --- | --- |
| 21.4 fold | 0.153 nM | 0.00106 s⁻¹ | 6.91e+06 M⁻¹ s⁻¹ | B1 |

Target: T1, mouse tissue factor pathway inhibitor …
Test: SPR, TFPI immobilized
Remark: another data set of the same source

| KD fold improvement | Kd | koff | kon | Binder |
| --- | --- | --- | --- | --- |
| 1 fold | 54.7 nM | 0.172 s⁻¹ | 3.15e+06 M⁻¹ s⁻¹ | B2 |

Target: T2, human tissue factor pathway inhibitor …
Test: SPR, TFPI immobilized

| Improvement | Kd | koff | kon | Binder |
| --- | --- | --- | --- | --- |
| 1 fold | 11.1 nM | 0.0084 s⁻¹ | 756000 M⁻¹ s⁻¹ | B2 |
| 2.7 fold | 0.827 nM | 0.00224 s⁻¹ | 2.71e+06 M⁻¹ s⁻¹ | B3 |
| 2.25 fold | 0.995 nM | 0.00254 s⁻¹ | 2.55e+06 M⁻¹ s⁻¹ | B4 |
| 2.35 fold | 0.95 nM | 0.0038 s⁻¹ | 4.01e+06 M⁻¹ s⁻¹ | B5 |
| 6 fold | 0.373 nM | 0.00143 s⁻¹ | 3.84e+06 M⁻¹ s⁻¹ | B6 |
| 2 fold | 1.12 nM | 0.00432 s⁻¹ | 3.86e+06 M⁻¹ s⁻¹ | B7 |
| 3.08 fold | 0.727 nM | 0.00204 s⁻¹ | 2.81e+06 M⁻¹ s⁻¹ | B8 |
| 1.78 fold | 1.26 nM | 0.00162 s⁻¹ | 1.29e+06 M⁻¹ s⁻¹ | B9 |
| 2.24 fold | 0.999 nM | 0.0044 s⁻¹ | 4.41e+06 M⁻¹ s⁻¹ | B10 |
| 4.64 fold | 0.482 nM | 0.00209 s⁻¹ | 4.33e+06 M⁻¹ s⁻¹ | B11 |
| 1.97 fold | 1.14 nM | 0.003 s⁻¹ | 2.64e+06 M⁻¹ s⁻¹ | B12 |
| 1.95 fold | 1.15 nM | 0.00333 s⁻¹ | 2.91e+06 M⁻¹ s⁻¹ | B13 |

Target: T2, human tissue factor pathway inhibitor …
Test: competitive ELISA

| variant/wild-type | Binder |
| --- | --- |
| 5.1 ratio | B3 |
| 7.5 ratio | B4 |
| 4.3 ratio | B5 |
| 9.7 ratio | B6 |
| 7.4 ratio | B7 |
| 6.5 ratio | B8 |
| 7.3 ratio | B9 |
| 4.2 ratio | B10 |
| 3.5 ratio | B11 |
| 4.6 ratio | B12 |
| 3.6 ratio | B13 |

Target: T1, mouse tissue factor pathway inhibitor …
Test: competitive ELISA

| variant/wild-type | Binder |
| --- | --- |
| 2.9 ratio | B3 |
| 3.9 ratio | B4 |
| 2.6 ratio | B5 |
| 7.4 ratio | B6 |
| 4 ratio | B7 |
| 3.1 ratio | B8 |
| 0.7 ratio | B9 |
| 1.6 ratio | B10 |
| 1.4 ratio | B11 |
| 3.2 ratio | B12 |
| 2.4 ratio | B13 |

Target: T2, human tissue factor pathway inhibitor …
Test: competitive ELISA
Remark: another data set of the same source

| variant/HC_K99L | Binder |
| --- | --- |
| 18.8 ratio | B1 |

Target: T1, mouse tissue factor pathway inhibitor …
Test: competitive ELISA
Remark: another data set of the same source

| variant/HC_K99L | Binder |
| --- | --- |
| 18.2 ratio | B1 |

Target: T2, human tissue factor pathway inhibitor …
Test: SPR, TFPI immobilized
Remark: another data set of the same source

| KD fold improvement | Kd | koff | kon | Binder |
| --- | --- | --- | --- | --- |
| 1 fold | 11.1 nM | 0.0084 s⁻¹ | 756000 M⁻¹ s⁻¹ | B2 |

Target: T1, mouse tissue factor pathway inhibitor …
Test: SPR, TFPI immobilized
Remark: another data set of the same source

| Improvement | Kd | koff | kon | Binder |
| --- | --- | --- | --- | --- |
| 1 fold | 58.6 nM | 0.128 s⁻¹ | 2.18e+06 M⁻¹ s⁻¹ | B2 |
| 2.21 fold | 1.59 nM | 0.00145 s⁻¹ | 912000 M⁻¹ s⁻¹ | B3 |
| 1.78 fold | 1.98 nM | 0.00246 s⁻¹ | 1.25e+06 M⁻¹ s⁻¹ | B5 |
| 5.91 fold | 0.595 nM | 0.00202 s⁻¹ | 3.39e+06 M⁻¹ s⁻¹ | B6 |
| 4.32 fold | 0.814 nM | 0.00232 s⁻¹ | 2.86e+06 M⁻¹ s⁻¹ | B7 |
| 1.69 fold | 2.07 nM | 0.00183 s⁻¹ | 884000 M⁻¹ s⁻¹ | B8 |
| 1.71 fold | 2.06 nM | 0.00316 s⁻¹ | 1.53e+06 M⁻¹ s⁻¹ | B13 |

Target: T2, human tissue factor pathway inhibitor …
Test: SPR, TFPI immobilized
Remark: another data set of the same source

| KD fold improvement | Kd | koff | kon | Binder |
| --- | --- | --- | --- | --- |
| 49.4 fold | 0.0375 nM | 0.000123 s⁻¹ | 3.28e+06 M⁻¹ s⁻¹ | B1 |

Target: recombinant TFPI of the FXa restoring assay (human, mouse or rat; not specified for Tables 9 and 10)
Test: cell-based or functional assay

| IC50, FXa restoring assay | Improvement vs parental, FXa restoring assay | Binder |
| --- | --- | --- |
| 1.46 µg/mL | 1 fold | B2 |
| 0.39 µg/mL | 1.6 fold | B4 |
| 0.55 µg/mL | 1.1 fold | B5 |
| 0.201 µg/mL | 3.5 fold | B6 |
| 0.23 µg/mL | 3 fold | B7 |
| 0.35 µg/mL | 2 fold | B8 |
| 0.76 µg/mL | 0.9 fold | B9 |
| 0.37 µg/mL | 1.7 fold | B10 |
| 0.34 µg/mL | 1.9 fold | B11 |
| 0.34 µg/mL | 1.9 fold | B12 |
| 0.33 µg/mL | 1.7 fold | B13 |
